# Where two headings read alike, the source gives them in different places.
# How the values were obtained:
# [1] = LogD determination: partition between 1-octanol and phosphate buffer pH 7.4
# Experimental: In the following, the lipophilicity of the labeled conjugates was investigated to get a first idea of the potential excretion pathway of the agents during an in vivo application. The logD values were determined by partition experiments between n-octanol and aqueous solution at pH 7.4.
# The mixtures were intensively shaken for 5 min on a vibrating plate. After subsequent centrifugation at 13,000 rpm for 5 min, 125 µL were taken from each phase and measured in a γ-counter. The logD values were calculated from three or four independent experiments, each performed in triplicate.
# [2] = Photophysical properties (absorbance and emission measurements); type: physicochemical; settings: PBS, 1 × 10^−5 mol × L^−1
# Experimental: Following the synthesis of the target compounds, their photophysical properties were determined. Here, a possible negative influence of the conjugation of the different MIUs to the corresponding peptidic structures on the absorbance coefficients, or the absorption or emission wavelengths should be ruled out. In Table 2, the results of these evaluations are reported for the MIU-peptide-bioconjugates 7 a-c, 8 a-c and 9 a-c as well as for the MIUs 7-9. As expected, no significant loss or shift of fluorescence properties of the final compounds compared to their imaging units before conjugation was observed. This is in line with the earlier observation for PESIN homodimer-MIU-conjugates where an influence of dye or MIU bioconjugation on fluorescence quantum yields and other photophysical properties could be ruled out.
# For HPLC chromatography, a Dionex UltiMate 3000 system was used together with Chromeleon Software (Version 6.80). For semipreparative analyses, a Chromolith (RP-18e, 100–10 mm, Merck, Germany) column was used. For radioanalytical use, a Dionex UltiMate 3000 system equipped with a Raytest GABI Star radioactivity detector was used together with a Chromolith Performance (RP-18e, 100–4.6 mm, Merck, Germany) column. All operations were performed with a flow rate of 4 mL/min using H2O + 0.1% TFA and MeCN + 0.1% TFA as solvents. HR-ESI (high-resolution Electrospray Ionization) and MALDI (Matrix-Assisted Laser Desorption/Ionization) spectra were obtained with Finnigan MAT95Q and Bruker Daltronics Microflex spectrometers, respectively. γ-counting was performed using a 2480 Wizard gamma counter system from Perkin Elmer (Rodgau, Germany). For absorbance and emission measurements, a Tecan Infinite M200 Microplate reader together with a Nunc Micro-Well 96 solid plate from ThermoFisher (Dreieich, Germany) was used. Confocal fluorescence microscopy was performed on a Leica TCS SP8 confocal microscope with lasers at λ = 405, 488, 552 and 638 nm. Overlays of microscopies were generated directly with the operating software or afterwards using FIJI software (V1.50e).
# [3] = parameters: method as in PMID 32618007, PMID 32948032; settings: MIUs; mean ± SD; ref [20],[21]; cited from earlier work
# [4] = parameters: method as in PMID 32618007, PMID 32948032; settings: ref [20],[21], cited from earlier work
smiles,measurement,setting,value
"CSCC[C@H](NC(=O)[C@H](CC(C)C)NC(=O)[C@H](Cc1c[nH]cn1)NC(=O)CNC(=O)[C@@H](NC(=O)[C@H](C)NC(=O)[C@H](Cc1c[nH]c2ccccc12)NC(=O)[C@H](CCC(N)=O)NC(=O)CCOCCOCCOCCOCCNC(=O)CCCN1C(=O)CC(SC[C@H](NC(=O)[C@H](CCCC[n+]2c(C)cc(/C=C/c3ccc(N(C)C)cc3)cc2C)NC(=O)CC[C@H](C(=O)O)N2CCN(CC(=O)O)CCN(CC(=O)O)CC2)C(N)=O)C1=O)C(C)C)C(N)=O (stereo partly drawn) [7 a, BBN7-14-pyrylium-NODA-GA]",logD,[1],-2.38 ± 0.02
"CCCC[C@H](NC(=O)CCOCCOCCOCCOCCNC(=O)CCCN1C(=O)CC(SC[C@H](NC(=O)[C@H](CCCC[n+]2c(C)cc(/C=C/c3ccc(N(C)C)cc3)cc2C)NC(=O)CC[C@H](C(=O)O)N2CCN(CC(=O)O)CCN(CC(=O)O)CC2)C(N)=O)C1=O)C(=O)N[C@H]1CC(=O)NCCCC[C@@H](C(N)=O)NC(=O)[C@H](Cc2c[nH]c3ccccc23)NC(=O)[C@H](CCCNC(=N)N)NC(=O)[C@@H](Cc2ccccc2)NC(=O)[C@H](Cc2c[nH]cn2)NC1=O (stereo partly drawn) [7 b, Nle-c(DHfRWK)-pyrylium-NODA-GA]",logD,[1],-2.03 ± 0.06
"Cc1cc(/C=C/c2ccc(N(C)C)cc2)cc(C)[n+]1CCCC[C@H](NC(=O)CC[C@H](C(=O)O)N1CCN(CC(=O)O)CCN(CC(=O)O)CC1)C(=O)N[C@@H](CSC1CC(=O)N(CCCC(=O)NCCOCCOCCOCCOCCC(=O)NCCCC[C@@H]2NC(=O)[C@@H](Cc3ccccc3)NC(=O)[C@H](CC(=O)O)NC(=O)CNC(=O)[C@H](CCCNC(=N)N)NC2=O)C1=O)C(N)=O (stereo partly drawn) [7 c, c(RGDfK)-pyrylium-NODA-GA]",logD,[1],-2.51 ± 0.09
"CSCC[C@H](NC(=O)[C@H](CC(C)C)NC(=O)[C@H](Cc1c[nH]cn1)NC(=O)CNC(=O)[C@@H](NC(=O)[C@H](C)NC(=O)[C@H](Cc1c[nH]c2ccccc12)NC(=O)[C@H](CCC(N)=O)NC(=O)CCOCCOCCOCCOCCNC(=O)CCCN1C(=O)CC(SC[C@H](NC(=O)[C@H](CCCCNS(=O)(=O)c2cccc3c(N(C)C)cccc23)NC(=O)CC[C@H](C(=O)O)N2CCN(CC(=O)O)CCN(CC(=O)O)CC2)C(N)=O)C1=O)C(C)C)C(N)=O (stereo partly drawn) [8 a, BBN7-14-dansyl-NODA-GA]",logD,[1],-1.44 ± 0.01
"CCCC[C@H](NC(=O)CCOCCOCCOCCOCCNC(=O)CCCN1C(=O)CC(SC[C@H](NC(=O)[C@H](CCCCNS(=O)(=O)c2cccc3c(N(C)C)cccc23)NC(=O)CC[C@H](C(=O)O)N2CCN(CC(=O)O)CCN(CC(=O)O)CC2)C(N)=O)C1=O)C(=O)N[C@H]1CC(=O)NCCCC[C@@H](C(N)=O)NC(=O)[C@H](Cc2c[nH]c3ccccc23)NC(=O)[C@H](CCCNC(=N)N)NC(=O)[C@@H](Cc2ccccc2)NC(=O)[C@H](Cc2c[nH]cn2)NC1=O (stereo partly drawn) [8 b, Nle-c(DHfRWK)-dansyl-NODA-GA]",logD,[1],-1.66 ± 0.03
"CN(C)c1cccc2c(S(=O)(=O)NCCCC[C@H](NC(=O)CC[C@H](C(=O)O)N3CCN(CC(=O)O)CCN(CC(=O)O)CC3)C(=O)N[C@@H](CSC3CC(=O)N(CCCC(=O)NCCOCCOCCOCCOCCC(=O)NCCCC[C@@H]4NC(=O)[C@@H](Cc5ccccc5)NC(=O)[C@H](CC(=O)O)NC(=O)CNC(=O)[C@H](CCCNC(=N)N)NC4=O)C3=O)C(N)=O)cccc12 (stereo partly drawn) [8 c, c(RGDfK)-dansyl-NODA-GA]",logD,[1],-2.17 ± 0.14
"CSCC[C@H](NC(=O)[C@H](CC(C)C)NC(=O)[C@H](Cc1c[nH]cn1)NC(=O)CNC(=O)[C@@H](NC(=O)[C@H](C)NC(=O)[C@H](Cc1c[nH]c2ccccc12)NC(=O)[C@H](CCC(N)=O)NC(=O)CCOCCOCCOCCOCCNC(=O)CCCN1C(=O)CC(SC[C@H](NC(=O)[C@H](CCCCNC(=O)c2ccc(C3=C(/C=C/C4=[N+](CCCCS(=O)(=O)[O-])c5ccc6ccccc6c5C4(C)C)CCC/C3=C\C=C3\N(CCCCS(=O)(=O)O)c4ccc5ccccc5c4C3(C)C)cc2)NC(=O)CC[C@H](C(=O)O)N2CCN(CC(=O)O)CCN(CC(=O)O)CC2)C(N)=O)C1=O)C(C)C)C(N)=O (stereo partly drawn) [9 a, BBN7-14-cyanine-NODA-GA]",logD,[1],-1.45 ± 0.06
same,λmax(abs),[2],724/800
same,Stokes Shift,[2]; λex = 650 nm,9 nm
same,λmax(em),[2]; λex = 650 nm,809 nm
"CCCC[C@H](NC(=O)CCOCCOCCOCCOCCNC(=O)CCCN1C(=O)CC(SC[C@H](NC(=O)[C@H](CCCCNC(=O)c2ccc(C3=C(/C=C/C4=[N+](CCCCS(=O)(=O)O)c5ccc6ccccc6c5C4(C)C)CCC/C3=C\C=C3\N(CCCCS(=O)(=O)[O-])c4ccc5ccccc5c4C3(C)C)cc2)NC(=O)CC[C@H](C(=O)O)N2CCN(CC(=O)O)CCN(CC(=O)O)CC2)C(N)=O)C1=O)C(=O)N[C@H]1CC(=O)NCCCC[C@@H](C(N)=O)NC(=O)[C@H](Cc2c[nH]c3ccccc23)NC(=O)[C@H](CCCNC(=N)N)NC(=O)[C@@H](Cc2ccccc2)NC(=O)[C@H](Cc2c[nH]cn2)NC1=O (stereo partly drawn) [9 b, Nle-c(DHfRWK)-cyanine-NODA-GA]",logD,[1],-1.42 ± 0.13
"CC1(C)C(/C=C/C2=C(c3ccc(C(=O)NCCCC[C@H](NC(=O)CC[C@H](C(=O)O)N4CCN(CC(=O)O)CCN(CC(=O)O)CC4)C(=O)N[C@@H](CSC4CC(=O)N(CCCC(=O)NCCOCCOCCOCCOCCC(=O)NCCCC[C@@H]5NC(=O)[C@@H](Cc6ccccc6)NC(=O)[C@H](CC(=O)O)NC(=O)CNC(=O)[C@H](CCCNC(=N)N)NC5=O)C4=O)C(N)=O)cc3)C(=C/C=C3/N(CCCCS(=O)(=O)[O-])c4ccc5ccccc5c4C3(C)C)/CCC2)=[N+](CCCCS(=O)(=O)O)c2ccc3ccccc3c21 (stereo partly drawn) [9 c, c(RGDfK)-cyanine-NODA-GA]",logD,[1],-1.97 ± 0.18
"N=C(N)NCCC[C@@H]1NC(=O)[C@H](CCCCNC(=O)CCOCCOCCOCCOCCNC(=O)CCCN2C(=O)CC(SC[C@H](NC(=O)CNC(=O)CC[C@H](C(=O)O)N3CCN(CC(=O)O)CCN(CC(=O)O)CC3)C(N)=O)C2=O)NC(=O)[C@@H](Cc2ccccc2)NC(=O)[C@H](CC(=O)O)NC(=O)CNC1=O (stereo partly drawn) [10 c, c(RGDfK)-NODA-GA]",logD,[1],-4.06 ± 0.1
Cc1cc(/C=C/c2ccc(N(C)C)cc2)cc(C)[n+]1CCCC[C@H](NC(=O)CC[C@H](C(=O)O)N1CCN(CC(=O)O)CCN(CC(=O)O)CC1)C(=O)N[C@@H](CS)C(N)=O [Compound 7],logD,[3],−2.04 ± 0.11
same,Stokes Shift,"[4]; MIU, λex = 400 nm",160 nm
same,log ε,[4]; MIUs,4.16 M^−1cm^−1
same,λmax(abs),[4]; MIUs,440 nm
same,λmax(em),"[4]; MIUs, λex = 400 nm",600 nm
"CN(C)c1cccc2c(S(=O)(=O)NCCCC[C@H](NC(=O)CC[C@H](C(=O)O)N3CCN(CC(=O)O)CCN(CC(=O)O)CC3)C(=O)N[C@@H](CS)C(N)=O)cccc12 [Compound 8, thio-dansyl-NODA-GA]",logD,[3],−1.39 ± 0.04
same,λmax(em),"[4]; MIUs, λex = 400 nm",550 nm
"CC1(C)C(/C=C/C2=C(c3ccc(C(=O)NCCCC[C@H](NC(=O)CC[C@H](C(=O)O)N4CCN(CC(=O)O)CCN(CC(=O)O)CC4)C(=O)N[C@@H](CS)C(N)=O)cc3)C(=C/C=C3/N(CCCCS(=O)(=O)[O-])c4ccc5ccccc5c4C3(C)C)/CCC2)=[N+](CCCCS(=O)(=O)O)c2ccc3ccccc3c21 [Compound 9, thio-cyanine-NODA-GA]",logD,[3],−1.29 ± 0.11
same,Stokes Shift,"[4]; MIU, λex = 650 nm",10 nm
same,λmax(em),"[4]; MIU, λex = 650 nm",800 nm
same,λmax(abs),[4]; MIUs,720/790
"NC(=O)[C@H](CS)NC(=O)CNC(=O)CC[C@H](C(=O)O)N1CCN(CC(=O)O)CCN(CC(=O)O)CC1 [Compound 10, thio-NODA-GA]",logD,[3],−3.35 ± 0.15
"CSCC[C@H](NC(=O)[C@H](CC(C)C)NC(=O)[C@H](Cc1c[nH]cn1)NC(=O)CNC(=O)[C@@H](NC(=O)[C@H](C)NC(=O)[C@H](Cc1c[nH]c2ccccc12)NC(=O)[C@H](CCC(N)=O)NC(=O)CCOCCOCCOCCOCCNC(=O)CCCN1C(=O)CC(SC[C@H](NC(=O)CNC(=O)CC[C@H](C(=O)O)N2CCN(CC(=O)O)CCN(CC(=O)O)CC2)C(N)=O)C1=O)C(C)C)C(N)=O (stereo partly drawn) [[^68Ga]Ga-10 a, metal not drawn]",logD,[1],-3.78 ± 0.04
"CCCC[C@H](NC(=O)CCOCCOCCOCCOCCNC(=O)CCCN1C(=O)CC(SC[C@H](NC(=O)CNC(=O)CC[C@H](C(=O)O)N2CCN(CC(=O)O)CCN(CC(=O)O)CC2)C(N)=O)C1=O)C(=O)N[C@H]1CC(=O)NCCCC[C@@H](C(N)=O)NC(=O)[C@H](Cc2c[nH]c3ccccc23)NC(=O)[C@H](CCCNC(=N)N)NC(=O)[C@@H](Cc2ccccc2)NC(=O)[C@H](Cc2c[nH]cn2)NC1=O (stereo partly drawn) [[^68Ga]Ga-10 b, metal not drawn]",logD,[1],-3.36 ± 0.02

# Source: PMC8541144, “Synthesis, Characterization and In Vitro Evaluation of Hybrid Monomeric Peptides Suited for Multimodal Imaging by PET/OI: Extending the Concept of Charge—Cell Binding Correlation” (Pharmaceuticals, 2021)
